Reference: publication PMC6086383 (Archives of biochemistry and biophysics, 2018)

Molecular target: porcine milk butyrylcholinesterase (Sus scrofa (domestic pig), UniProt A0A4X1VEU5)
Experiment: ELISA

porcine milk butyrylcholinesterase, sequence (P32752 whole entry): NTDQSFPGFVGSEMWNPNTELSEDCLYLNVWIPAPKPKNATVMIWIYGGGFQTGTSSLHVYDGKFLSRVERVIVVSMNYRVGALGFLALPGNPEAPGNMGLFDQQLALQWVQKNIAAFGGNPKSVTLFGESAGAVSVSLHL

B1: mouse anti-HuBChE monoclonal antibody B2 18-5 (antibody, V domains shown)
VH: QVQLQQSGAELVRPGSSVKISCKASGYAFSDYWMNWVKQRPGQGLEWIGQIYPGDGDTYYNGKFKGKATLTADKSSSTAYMQLSSLISEDSAVYFCARSRPLLDYSMHYWGQGASVTVSS
VL: DIQMTQSSSSFSVSLGDRVTITCKTSEDIYNRLAWYQQKPGNAPRLLISGATSLETGVPSRFSGSGSGEDFTLSITSLQTEDVATYYCQQYWSTPYTFGGGTKLEIK
B1: no binding.
